Results reported in article PMC4661472.

Legend:
[1] = molecular target: tapasin (human), wild type, in HeLa cells (UniProt O15533); test: co-immunoprecipitation with immunoblot densitometry; details: transient transfection of HeLa cells; IP via C-terminal c-Myc tag of TMD0TAP1; three independent experiments
[2] = molecular target: TMD0^TAP1 L68C single-cysteine mutant (M553) (human); test: cross-linking; crude membranes of M553 cells (tapasin-negative) transfected with single-Cys TMD0^TAP1 without tapasin; 1 mM Cu2+(phenanthroline)3, 10 min, 37 °C; non-reducing SDS-PAGE and immunoblot
[3] = molecular target: TMD0^TAP1 W33C single-cysteine mutant (M553) (human); test: as above
[4] = molecular target: TMD0^TAP1 V34C single-cysteine mutant (M553) (human); test: as above
[5] = molecular target: TMD0^TAP1 W69C single-cysteine mutant (M553) (human); test: as above
[6] = molecular target: TMD0^TAP1 V67C single-cysteine mutant (M553) (human); test: as above
[7] = molecular target: TMD0^TAP1 L107C single-cysteine mutant (M553) (human); test: as above
[8] = molecular target: TMD0^TAP1 L70C single-cysteine mutant (M553) (human); test: as above

Chain of UniProt O15533 (O15533 21-448): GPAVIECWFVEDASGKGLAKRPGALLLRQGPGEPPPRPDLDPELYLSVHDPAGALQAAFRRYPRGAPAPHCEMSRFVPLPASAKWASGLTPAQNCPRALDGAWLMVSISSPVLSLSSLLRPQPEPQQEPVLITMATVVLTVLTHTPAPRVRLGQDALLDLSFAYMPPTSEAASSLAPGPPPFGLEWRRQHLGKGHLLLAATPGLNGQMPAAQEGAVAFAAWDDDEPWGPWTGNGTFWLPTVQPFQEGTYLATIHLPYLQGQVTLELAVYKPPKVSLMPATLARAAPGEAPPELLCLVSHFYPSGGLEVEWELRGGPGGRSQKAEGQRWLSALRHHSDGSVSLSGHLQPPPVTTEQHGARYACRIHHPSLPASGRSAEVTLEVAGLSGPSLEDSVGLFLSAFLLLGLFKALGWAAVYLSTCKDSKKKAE

Row | Substance | response [1] [%] | further results
1 | TMD0^TAP1 L68C single-cysteine mutant (M553) (domain or fragment) |  | stoichiometry N [2]: 2
2 | TMD0^TAP1, parent of the single-cysteine mutants (Cys-less TAP background) L107C | 46 | 
3 | TMD0^TAP1 W33C single-cysteine mutant (M553) (domain or fragment) |  | stoichiometry N [3]: 2
4 | TMD0^TAP1 V34C single-cysteine mutant (M553) (domain or fragment) |  | stoichiometry N [4]: 2
5 | TMD0^TAP1, parent of the single-cysteine mutants (Cys-less TAP background) D32C | 0 | 
6 | TMD0^TAP1, parent of the single-cysteine mutants (Cys-less TAP background) W33C | 9 | 
7 | TMD0^TAP1 W69C single-cysteine mutant (M553) (domain or fragment) |  | stoichiometry N [5]: 2
8 | TMD0^TAP1, parent of the single-cysteine mutants (Cys-less TAP background) V67C | 19 | 
9 | TMD0^TAP1, parent of the single-cysteine mutants (Cys-less TAP background) A151C | 47 | 
10 | TMD0^TAP1 V67C single-cysteine mutant (M553) (domain or fragment) |  | stoichiometry N [6]: 2
11 | TMD0^TAP1 L107C single-cysteine mutant (M553) (domain or fragment) |  | stoichiometry N [7]: 2
12 | TMD0^TAP1, parent of the single-cysteine mutants (Cys-less TAP background) V34C | 17 | 
13 | TMD0^TAP1 L70C single-cysteine mutant (M553) (domain or fragment) |  | stoichiometry N [8]: 2
14 | TMD0^TAP1, parent of the single-cysteine mutants (Cys-less TAP background) L105C | 26 | 
15 | TMD0^TAP1, parent of the single-cysteine mutants (Cys-less TAP background) P149C | 86 | 
16 | TMD0^TAP1, parent of the single-cysteine mutants (Cys-less TAP background) W69C | 81 | 
17 | TMD0^TAP1, parent of the single-cysteine mutants (Cys-less TAP background) L68C | 51 | 
18 | TMD0^TAP1, parent of the single-cysteine mutants (Cys-less TAP background) A150C | 25 | 
19 | TMD0^TAP1, parent of the single-cysteine mutants (Cys-less TAP background) L148C | 12 | 

The next lines start with results.

Row | response [1] [%] | Substance | further results
20 | 42 | TMD0^TAP1, parent of the single-cysteine mutants (Cys-less TAP background) A106C | 
21 | 27 | TMD0^TAP1, parent of the single-cysteine mutants (Cys-less TAP background) L70C | 
22 | 29 | TMD0^TAP1, parent of the single-cysteine mutants (Cys-less TAP background) P108C | 
23 | 22 | TMD0^TAP1, parent of the single-cysteine mutants (Cys-less TAP background) A31C | 
